{"source": "paper PMC3606058", "about": "(Structure (London, England : 1993), 2013)", "binders": {"B1": {"name": "Pf Cmr3 (Pf1128), untagged (natural protein, Pyrococcus furiosus)", "chain": "MIEVTFTPYDVLLFRESRPFDAGSESVARSIIPLPQTVAGAIRTLLFYKGLKNCVGVGEEEPEFTLVGIAIGTEKGRIYPLPFNIIKSEKFYKVVNPGRFLGKLILPPKGKYKSGYVTESILEKYLKGELKEVEENKVIRIEKEKRIGIKLSREKKVVEEGMLYTVEFLRIEKIYAWIEDPGCGIKDILSSYEFLTLGGESRVAFVEVDDKTPDIFNRELGSTKKALFYFSTPTIGKVGEIVQELEKRLNAKIDDYLLVSSRPTAISGWDMHEKKPKGTKFAIPPGSVLFVEFKEEVEVPPYIKLGKLKKLGYGLALGGIWE"}}, "target": "T1, Pf Cmr2dHD (Pf1129), HD-domain-deleted Cmr2, N-terminally poly-histidine tagged (Pyrococcus furiosus, UniProt Q8U1S6 213-871)", "T1 sequence (looked up)": "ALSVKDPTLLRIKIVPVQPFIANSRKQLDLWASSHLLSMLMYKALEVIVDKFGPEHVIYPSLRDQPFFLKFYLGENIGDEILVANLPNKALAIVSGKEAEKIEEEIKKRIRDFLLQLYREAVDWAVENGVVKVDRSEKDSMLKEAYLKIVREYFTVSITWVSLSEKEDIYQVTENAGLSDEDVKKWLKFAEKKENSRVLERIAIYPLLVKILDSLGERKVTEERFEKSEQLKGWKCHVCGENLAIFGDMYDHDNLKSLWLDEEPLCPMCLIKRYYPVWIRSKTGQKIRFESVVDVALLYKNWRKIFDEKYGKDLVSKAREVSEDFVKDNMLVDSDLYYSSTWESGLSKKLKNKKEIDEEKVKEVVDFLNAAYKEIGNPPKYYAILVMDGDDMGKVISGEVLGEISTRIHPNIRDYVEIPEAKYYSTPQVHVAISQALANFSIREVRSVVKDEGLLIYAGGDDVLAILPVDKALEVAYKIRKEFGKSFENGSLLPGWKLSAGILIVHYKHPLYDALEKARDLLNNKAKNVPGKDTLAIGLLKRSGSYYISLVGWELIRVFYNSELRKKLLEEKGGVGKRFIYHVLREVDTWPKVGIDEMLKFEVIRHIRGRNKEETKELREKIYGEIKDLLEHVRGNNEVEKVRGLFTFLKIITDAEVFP", "test": "crystal structure"}
{"binder": "B1", "values": [{"measurement": "stoichiometry N", "result": "1 Cmr3:Cmr2dHD"}]}
